The assay has as its target T1, WT-HBc capsids (hepatitis B core protein, genotype D; strain ayw; GenBank: V01460.1) (Hepatitis B virus (genotype D; strain ayw)), P03146.
T1 chain: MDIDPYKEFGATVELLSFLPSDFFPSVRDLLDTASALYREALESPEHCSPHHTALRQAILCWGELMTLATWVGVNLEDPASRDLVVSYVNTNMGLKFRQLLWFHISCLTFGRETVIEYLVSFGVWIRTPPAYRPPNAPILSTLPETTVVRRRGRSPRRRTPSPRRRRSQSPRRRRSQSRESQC
The assay can be described thus: negative-staining electron microscopy. As to conditions: remark: other sources report otherwise.

B1: WT-HBc capsids (hepatitis B core protein, genotype D; strain ayw; GenBank: V01460.1), P03146 1-183 (natural protein)
chain: MDIDPYKEFGATVELLSFLPSDFFPSVRDLLDTASALYREALESPEHCSPHHTALRQAILCWGELMTLATWVGVNLEDPASRDLVVSYVNTNMGLKFRQLLWFHISCLTFGRETVIEYLVSFGVWIRTPPAYRPPNAPILSTLPETTVVRRRGRSPRRRTPSPRRRRSQSPRRRRSQSRESQC
On to B1, for which the stoichiometry N (subunits per capsid) was determined as 240.

Values taken from article PMC8145704, “Conformational Plasticity of Hepatitis B Core Protein Spikes Promotes Peptide Binding Independent of the Secretion Phenotype” (Microorganisms, 2021).
